Legend:
[1] = target: LgBiT Protein (LgBiT subunit of the NanoBiT luciferase; large, truncated fragment of NanoLuc) (Oplophorus gracilirostris); test: split reporter
SIRT5 = target: T1, SIRT5 (Homo sapiens, UniProt Q9NXA8); test: SIRTify cell-free assay, SIRT5; type: biochemical; details: ratio of IC50 values
T1 sequence (Q9NXA8 37-310): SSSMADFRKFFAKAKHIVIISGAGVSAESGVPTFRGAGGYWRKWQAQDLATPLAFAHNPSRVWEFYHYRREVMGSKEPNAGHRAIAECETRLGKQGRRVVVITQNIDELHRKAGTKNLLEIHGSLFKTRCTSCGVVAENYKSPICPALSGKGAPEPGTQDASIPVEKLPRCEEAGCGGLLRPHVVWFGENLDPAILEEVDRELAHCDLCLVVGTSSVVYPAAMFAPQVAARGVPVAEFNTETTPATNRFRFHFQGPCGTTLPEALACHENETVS

p86-Succinyl8,9: H2N-VSGWRLF(KSuc)(KSuc)IS-OH (peptide)
fold decrease in luminescent signal against unmodified p86 [1]: 7.5 fold

p86-Acetyl9: H2N-VSGWRLFK(KAc)IS-OH (peptide)
fold decrease in luminescent signal against unmodified p86 [1]: 1.1 fold

O=C(O)CCNC(=S)NCCCC[C@H](NS(=O)(=O)c1cccc(F)c1)C(=O)N[C@@H](Cc1c[nH]c2ccccc12)C(=O)NC1CCC1 [SIRT5 Inhibitor I (S5I1)]
lower IC50 for SIRT5 deglutarylase compared to desuccinylase activity (SIRT5): approximately 3 fold

p86-Succinyl8: H2N-VSGWRLF(KSuc)KIS-OH (peptide)
fold decrease in luminescent signal against unmodified p86 [1]: 1.7 fold

p86-Acetyl8,9: H2N-VSGWRLF(KAc)(KAc)IS-OH (peptide)
fold decrease in luminescent signal against unmodified p86 [1]: 5.8 fold | fold reduced affinity compared to p86 [1]: 175 fold

p86-Succinyl9: H2N-VSGWRLFK(KSuc)IS-OH (peptide)
fold decrease in luminescent signal against unmodified p86 [1]: 1.7 fold

p86-Acetyl8: H2N-VSGWRLF(KAc)KIS-OH (peptide)
fold decrease in luminescent signal against unmodified p86 [1]: 1.1 fold

— PMC12667410 (Cell chemical biology, 2024)
